Laboratory results: the Human Domainome abundance scans (Beltran et al. 2025)
± gives the uncertainty stated by the source.

B1: Apoptosis-associated speck-like protein containing a CARD, residues 114 to 194; numbered along this chain, Q9ULZ3 (parent)
chain: FIDQHRAALIARVTNVEWLLDALYGKVLTDEQYQAVRAEPTNPSKMRKLFSFTPAWNWTCKDLLLQALRESQSYLVEDLER

Variants of: B1
Experiment: abundance fitness (aPCA) (normalised: wild type 0, dead -1); higher = more abundant; growth selection in yeast, the domain comes from the species named
Conditions: Homo sapiens
FIDQHRAALIARVTNVVWLLDALYGKVLTDEQYQAVRAEPTNPSKMRKLFSFTPAWNWTCKDLLLQALRESQSYLVEDLER [E17V] showed an abundance fitness of -0.985 ± 0.12.
For FIDQHRAALIARVTNVWWLLDALYGKVLTDEQYQAVRAEPTNPSKMRKLFSFTPAWNWTCKDLLLQALRESQSYLVEDLER [E17W], the abundance fitness was -0.642 ± 0.12.
For FIDQHRAALIARVTNVTWLLDALYGKVLTDEQYQAVRAEPTNPSKMRKLFSFTPAWNWTCKDLLLQALRESQSYLVEDLER [E17T], the abundance fitness was -0.267 ± 0.066.
For FIDQHRAALIARVTNVYWLLDALYGKVLTDEQYQAVRAEPTNPSKMRKLFSFTPAWNWTCKDLLLQALRESQSYLVEDLER [E17Y], the abundance fitness was -0.61 ± 0.17.
FIDQHRAALIARVTNVERLLDALYGKVLTDEQYQAVRAEPTNPSKMRKLFSFTPAWNWTCKDLLLQALRESQSYLVEDLER [W18R] gave an abundance fitness of 0.076 ± 0.04.
In the case of FIDQHRAALIARVTNVEVLLDALYGKVLTDEQYQAVRAEPTNPSKMRKLFSFTPAWNWTCKDLLLQALRESQSYLVEDLER [W18V], the abundance fitness is reported as 0.107 ± 0.048.
FIDQHRAALIARVTNVEQLLDALYGKVLTDEQYQAVRAEPTNPSKMRKLFSFTPAWNWTCKDLLLQALRESQSYLVEDLER [W18Q] showed an abundance fitness of 0.174 ± 0.06.
Work on FIDQHRAALIARVTNVETLLDALYGKVLTDEQYQAVRAEPTNPSKMRKLFSFTPAWNWTCKDLLLQALRESQSYLVEDLER [W18T] yielded an abundance fitness of 0.053 ± 0.066.
FIDQHRAALIARVTNVELLLDALYGKVLTDEQYQAVRAEPTNPSKMRKLFSFTPAWNWTCKDLLLQALRESQSYLVEDLER [W18L] showed an abundance fitness of 0.043 ± 0.048.
For FIDQHRAALIARVTNVEKLLDALYGKVLTDEQYQAVRAEPTNPSKMRKLFSFTPAWNWTCKDLLLQALRESQSYLVEDLER [W18K], the abundance fitness was 0.186 ± 0.089.
With FIDQHRAALIARVTNVEELLDALYGKVLTDEQYQAVRAEPTNPSKMRKLFSFTPAWNWTCKDLLLQALRESQSYLVEDLER [W18E] the abundance fitness was 0.103 ± 0.083.
Work on FIDQHRAALIARVTNVEGLLDALYGKVLTDEQYQAVRAEPTNPSKMRKLFSFTPAWNWTCKDLLLQALRESQSYLVEDLER [W18G] yielded an abundance fitness of 0.169 ± 0.047.
FIDQHRAALIARVTNVESLLDALYGKVLTDEQYQAVRAEPTNPSKMRKLFSFTPAWNWTCKDLLLQALRESQSYLVEDLER [W18S] gave an abundance fitness of 0.163 ± 0.045.
Work on FIDQHRAALIARVTNVEDLLDALYGKVLTDEQYQAVRAEPTNPSKMRKLFSFTPAWNWTCKDLLLQALRESQSYLVEDLER [W18D] yielded an abundance fitness of 0.18 ± 0.097.
In the case of FIDQHRAALIARVTNVEALLDALYGKVLTDEQYQAVRAEPTNPSKMRKLFSFTPAWNWTCKDLLLQALRESQSYLVEDLER [W18A], the abundance fitness is reported as 0.248 ± 0.046.
For FIDQHRAALIARVTNVEPLLDALYGKVLTDEQYQAVRAEPTNPSKMRKLFSFTPAWNWTCKDLLLQALRESQSYLVEDLER [W18P], the abundance fitness was 0.174 ± 0.047.
In the case of FIDQHRAALIARVTNVEMLLDALYGKVLTDEQYQAVRAEPTNPSKMRKLFSFTPAWNWTCKDLLLQALRESQSYLVEDLER [W18M], the abundance fitness is reported as 0 ± 0.077.
In the case of FIDQHRAALIARVTNVEILLDALYGKVLTDEQYQAVRAEPTNPSKMRKLFSFTPAWNWTCKDLLLQALRESQSYLVEDLER [W18I], the abundance fitness is reported as 0.061 ± 0.12.
Variant FIDQHRAALIARVTNVEFLLDALYGKVLTDEQYQAVRAEPTNPSKMRKLFSFTPAWNWTCKDLLLQALRESQSYLVEDLER [W18F] has an abundance fitness of 0.213 ± 0.091.
FIDQHRAALIARVTNVECLLDALYGKVLTDEQYQAVRAEPTNPSKMRKLFSFTPAWNWTCKDLLLQALRESQSYLVEDLER [W18C] showed an abundance fitness of 0.029 ± 0.069.
With FIDQHRAALIARVTNVEYLLDALYGKVLTDEQYQAVRAEPTNPSKMRKLFSFTPAWNWTCKDLLLQALRESQSYLVEDLER [W18Y] the abundance fitness was 0.186 ± 0.093.
Variant FIDQHRAALIARVTNVEWNLDALYGKVLTDEQYQAVRAEPTNPSKMRKLFSFTPAWNWTCKDLLLQALRESQSYLVEDLER [L19N] has an abundance fitness of -0.704 ± 0.46.
Variant FIDQHRAALIARVTNVEWKLDALYGKVLTDEQYQAVRAEPTNPSKMRKLFSFTPAWNWTCKDLLLQALRESQSYLVEDLER [L19K] has an abundance fitness of -0.922 ± 0.36.
For FIDQHRAALIARVTNVEWELDALYGKVLTDEQYQAVRAEPTNPSKMRKLFSFTPAWNWTCKDLLLQALRESQSYLVEDLER [L19E], the abundance fitness was -0.882 ± 0.23.
In the case of FIDQHRAALIARVTNVEWFLDALYGKVLTDEQYQAVRAEPTNPSKMRKLFSFTPAWNWTCKDLLLQALRESQSYLVEDLER [L19F], the abundance fitness is reported as -0.781 ± 0.2.
For FIDQHRAALIARVTNVEWMLDALYGKVLTDEQYQAVRAEPTNPSKMRKLFSFTPAWNWTCKDLLLQALRESQSYLVEDLER [L19M], the abundance fitness was -0.787 ± 0.12.
Work on FIDQHRAALIARVTNVEWPLDALYGKVLTDEQYQAVRAEPTNPSKMRKLFSFTPAWNWTCKDLLLQALRESQSYLVEDLER [L19P] yielded an abundance fitness of -0.787 ± 0.12.
FIDQHRAALIARVTNVEWALDALYGKVLTDEQYQAVRAEPTNPSKMRKLFSFTPAWNWTCKDLLLQALRESQSYLVEDLER [L19A] gave an abundance fitness of -0.319 ± 0.062.
Variant FIDQHRAALIARVTNVEWGLDALYGKVLTDEQYQAVRAEPTNPSKMRKLFSFTPAWNWTCKDLLLQALRESQSYLVEDLER [L19G] has an abundance fitness of -0.827 ± 0.081.
For FIDQHRAALIARVTNVEWILDALYGKVLTDEQYQAVRAEPTNPSKMRKLFSFTPAWNWTCKDLLLQALRESQSYLVEDLER [L19I], the abundance fitness was -0.122 ± 0.12.
For FIDQHRAALIARVTNVEWDLDALYGKVLTDEQYQAVRAEPTNPSKMRKLFSFTPAWNWTCKDLLLQALRESQSYLVEDLER [L19D], the abundance fitness was -0.395 ± 0.097.
In the case of FIDQHRAALIARVTNVEWRLDALYGKVLTDEQYQAVRAEPTNPSKMRKLFSFTPAWNWTCKDLLLQALRESQSYLVEDLER [L19R], the abundance fitness is reported as -0.906 ± 0.12.
In the case of FIDQHRAALIARVTNVEWSLDALYGKVLTDEQYQAVRAEPTNPSKMRKLFSFTPAWNWTCKDLLLQALRESQSYLVEDLER [L19S], the abundance fitness is reported as -0.853 ± 0.11.
Variant FIDQHRAALIARVTNVEWQLDALYGKVLTDEQYQAVRAEPTNPSKMRKLFSFTPAWNWTCKDLLLQALRESQSYLVEDLER [L19Q] has an abundance fitness of -0.439 ± 0.13.
